Changes are numbered by the printed parent chain. Names and notes keep the numbering of the source.
B1: E35D/M47V/N48K/V68M/K89N: variant CD80 IgV-Fc, IgV SEQ ID NO:465 (protein)
chain: VIHVTKEVKEVATLSCGHNVSVEELAQTRIYWQKDKKMVLTMMSGDVKIWPEYKNRTIFDITNNLSIMILALRPSDEGTYECVVLKYENDAFKREHLAEVTLSVKAD
B2: E35G/K54E/A71D/L72P: variant CD80 IgV-Fc, IgV SEQ ID NO:219 (protein)
chain: B1 chain with D35G, V47M, K48N, K54E, M68V, A71D, L72P, N89K
B3: E35D/M47I/L70M: variant CD80 IgV-Fc, IgV SEQ ID NO:199 (SEQ ID NO:125 in b995) (protein)
chain: B1 chain with V47I, K48N, M68V, L70M, N89K

Columns and labels:
[1] = molecular target: T1, CD28 (Homo sapiens, UniProt P10747); assay: Jurkat/IL2 + K562/OKT3/PD-L1 reporter assay; type: cell-based; design: host or cells: Jurkat cells expressing an IL-2-luciferase reporter
[2] = molecular target: T1, CD28; assay: Flow binding to Jurkat/IL2 reporter cells (CD28); design: host or cells: Jurkat cells expressing an IL-2-luciferase reporter; details: Table E19; Jurkats (CD28); 33.3 nM
How it was run: (§1)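 Flow cytometry on transfected CHO cells or CD28+ Jurkat/IL2 reporter cells, blocked 20 min in PBS/1% BSA/0.1% azide. Fusion protein 45 min on ice; PE anti-human Fc 1:150, 30 min on ice; fixed in 2% formaldehyde. Read-out PE MFI, EC50 calculated.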

[3] = molecular target: T2, huCTLA4 (Homo sapiens, UniProt P16410); assay: Flow binding to CHO cells stably expressing CTLA4; design: huCTLA4 and huPD-L1, full-length mammalian surface expression constructs were generated; expressed in transfected cells; host or cells: CHO cells, lentiviral transduction, sorted to >98% purity; details: Table E19; CHO cells stably expressing CTLA4; 33.3 nM
How it was run: as §1

[4] = molecular target: T2, huCTLA4; assay: Antagonism of CD80/CTLA-4 binding on CHO cells expressing CTLA-4; design: Full-length mammalian surface expression constructs for each of human CTLA-4, PD-L1, and CD28; details: 25 nM fluorochrome-conjugated wild-type CD80-Fc; FIG. 21
Method: After washing, cells were incubated with 25 nM fluorochrome-conjugated wild-type CD80-Fc. Bound fluorescent competitor protein was detected and measured by flow cytometry.
(§2) The multivalent variant CD80 IgSF domain fusion proteins were assessed to test for blocking of the PD-L1/PD-1 and CTLA-4/CD80 interaction performed substantially as described in Example 15. CHO/OKT3/PD-L1 and CHO/CTLA-4 cells were counted and plated at 100,000 cells/well and then incubated with fluorescently conjugated PD-1-Fc and CD80-Fc. Exemplary multivalent variant CD80 IgSF domain fusion proteins were incubated with the cells for 30 minutes. […] Cells were washed and incubated with 100 nM fluorescently conjugated PD-1-Fc and CD80-Fc competitor for 30 minutes. Cells were then washed and samples were acquired on a flow cytometer and MFIs of the fluorescently labeled molecules were determined.

[5] = molecular target: T3, PD-L1/PD-1 interaction (Homo sapiens, UniProt Q9NZQ7); assay: PD-L1/PD-1 binding and blocking on CHO/PD-L1 cells; details: fluorescently conjugated PD-1-Fc; FIG. 7
T3 construct: expressed in transfected cells
Method: Binding of selected immunomodulatory fusion proteins to cells expressing PD-L1 was assessed to test for blocking of the PD-L1/PD-1 interaction. […] Samples were acquired on a flow cytometer and MFIs of the fluorescently labeled PD-1 were determined by Flowjo software analysis.
as §2

[6] = system: primary human pan T cells; assay: Cytokine production following PD-L1-dependent costimulation; type: cell-based; details: mitomycin-c treated K562/OKT3/PDL1 aAPC; FIG. 6
[7] = molecular target: T1, CD28; assay: CD28 costimulation via Fc receptor or PD-L1 dependent cross-linking (Jurkat/IL2 + K562/OKT3 +/- PD-L1); type: cell-based; design: host or cells: Jurkat cells expressing an IL-2-luciferase reporter; details: K562/0KT3 aAPC, luciferase signal
Method: In a further experiment, CD28 costimulation was assessed for variant CD80-IgV-Fc fusion proteins, where the Fc was an IgG1 Fc (e.g. SEQ ID NO:1517) capable of mediating effector activity via binding to Fc receptors (FcR). The experiment was carried out as described in part A above, except CD32-expressing K562 cells stably transduced with OKT3 (K562/OKT3) or OKT3 and PD-L1 (K562/OKT3/PD-L1) were used instead of the CHO/OKT3 and CHO/OKT3/PD-L1 cells, and the results are depicted in Table E9.

[8] = system: Pan T cells; assay: Primary T cell stimulation assay with K562/OKT3 +/- PD-L1 (IL-2, IFN-gamma, proliferation); type: cell-based, human; details: 1, 10, 100 nM; 72 hr
Method: IFN-gamma, IL-2 and proliferation were determined after 72 hr. incubation.

[9] = molecular target: T1, CD28; assay: Jurkat/IL2 + CHO/OKT3 +/- PD-L1 reporter assay: PD-L1-dependent CD28 costimulation; type: cell-based; design: host or cells: Jurkat cells expressing an IL-2-luciferase reporter; details: luciferase signal; for PD-L1-Dependent CD28 Costimulation, +PD-L1, 0.6 nM / PD-L1-Dependent CD28 Costimulation, +PD-L1, 50 nM: CHO/OKT3/PD-L1 aAPC; for PD-L1-Dependent CD28 Costimulation, No PD-L1, 50 nM / PD-L1-Dependent CD28 Costimulation, No PD-L1, […]: CHO/OKT3 aAPC
How it was run: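 Jurkat reporter cells (100,000/well) preincubated 15 min at room temperature with test protein, then cocultured 5 h at 37 °C with CHO aAPCs bearing anti-CD3 scFv (OKT3) with or without PD-L1. Luciferase luminescence (RLU) read after lysis-substrate addition.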

[10] = molecular target: T1, CD28; assay: Jurkat/IL2 reporter assay: blockade of CD28 costimulation (plate-bound anti-CD3/CD86-Fc); type: cell-based; design: host or cells: Jurkat cells expressing an IL-2-luciferase reporter; details: Table E5; protein diluted to 40 nM before mixing with cells; 5 hours
How it was run: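 Jurkat cells carrying an IL-2–luciferase reporter were preincubated 15 min at room temperature with CD80-Fc fusion molecules, then added to plates coated overnight with anti-CD3 and CD86-Fc. After 5 h at 37 °C, luciferase luminescence was read with Bio-Glo.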

[11] = system: huPD-L1 transduced MC38 tumor cells; assay: In vitro cytotoxicity to huPD-L1 transduced MC38 tumor cells; type: cell-based, mouse; details: 100 nM or 10 nM; 72 hours; human pan T cells 1:5; FIG. 17
Method: This Example describes the assessment of in vitro cytotoxicity of huPD-L1 transduced MC38 tumor cells. MC38 tumor cells, non-transduced or transduced with huPD-L1, were treated with Mitomycin-C and plated with human pan T cells labelled with CFSE at a 1:5 ratio. […] As a control, an exemplary anti-PD-1 antibody nivolumab or an Fc (inert) only control also were assessed. Cells were then harvested and stained with 7-AAD viability dye. After acquiring samples on a flow cytometer, the percentage of dead cells was calculated using Flowjo analysis by gating on 7-AAD+ cells in the CFSE− gate.

T2 sequence (P16410 36-223): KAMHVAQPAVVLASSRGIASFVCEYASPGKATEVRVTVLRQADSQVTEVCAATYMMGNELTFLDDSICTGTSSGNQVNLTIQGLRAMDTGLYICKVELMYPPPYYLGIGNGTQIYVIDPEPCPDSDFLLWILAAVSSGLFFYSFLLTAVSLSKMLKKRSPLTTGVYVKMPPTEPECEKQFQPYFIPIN
T3 sequence (Q9NZQ7 19-290): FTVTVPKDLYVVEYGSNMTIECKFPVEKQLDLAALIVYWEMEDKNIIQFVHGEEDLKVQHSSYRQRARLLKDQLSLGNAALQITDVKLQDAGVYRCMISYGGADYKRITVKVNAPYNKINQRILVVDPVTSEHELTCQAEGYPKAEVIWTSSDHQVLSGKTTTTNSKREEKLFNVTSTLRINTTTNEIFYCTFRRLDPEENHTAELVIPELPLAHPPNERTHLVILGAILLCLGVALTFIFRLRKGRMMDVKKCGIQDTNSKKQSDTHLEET

Molecule | PD-L1 dependent CD28 costimulation (luciferase activity) ([1]; IgV-Fc (inert), various concentrations, FIG. 5) | Relative Luciferase Units (RLU), CD80-Fe Cone 50 nM ([1]; Table E8, K562/OKT3/PD-L1 aAPC, 50 nM) [RLU] | CD28 MFI at 33.3 nM [2] | CTLA4 MFI at 33.3 nM [3] | antagonism of binding of CD80 to CTLA-4 [4] | blocking of binding of PD-1 to PD-L1 [5] | IL-2 secretion in culture supernatants [6] | CD28 costimulation, FcR Dependent Cross-Linking (No PD-L1), 0.6 nM [7] | CD28 costimulation, FcR Dependent Cross-Linking (No PD-L1), 50 nM [7] | CD28 costimulation and IL-2 production [8] | PD-L1-Dependent CD28 Costimulation, +PD-L1, 0.6 nM [9] | PD-L1-Dependent CD28 Costimulation, +PD-L1, 50 nM [9] | PD-L1-Dependent CD28 Costimulation, No PD-L1, 50 nM [9] | PD-L1-Dependent CD28 Costimulation, No PD-L1, […] [9] | Average Relative Luminescence Units [10] | cytotoxicity (percentage of dead 7-AAD+ tumor cells) [11]
B1 | induced PD-L1 dependent CD28 costimulation in a dose-dependent manner | 1439 | 1348 | 20884 | antagonized the binding of CD80 to CTLA-4 | antagonize or block binding of PD-1 to PD-L1 | resulted in IL-2 secretion in culture supernatants | – | – | – | – | – | – | – | – | –
B2 | – | – | – | – | – | – | – | 1337 | 1510 | did not generate significant costimulation and IL-2 production | 529 | 476 | 440 | 417 | – | –
B3 | – | – | – | – | – | – | – | 1609 | 5780 | – | 1004 | 2629 | 600 | 549 | 1077 Relative Luminescence Units | increased cytotoxicity against huPD-L1 transduced MC38 tumor cells, but not non-transduced MC38 parental cells
